Measurements as given in patent US20260109747A1.

Tests used:
Assay in all cases: cell-based or functional assay
[1] = target: cynomolgus monkey IL-2Rα/β/γ (cynomolgus monkey)
human IL-2Rα/β/γ (human) = human IL-2Rα/β/γ (human) (UniProt P01589)
human IL-2Rβ/γ (human) = human IL-2Rβ/γ (human) (UniProt P14784)
mouse IL-2Rβ/γ (mouse) = target: T1, mouse IL-2Rβ/γ (mouse) (UniProt P16297)
T1 sequence (looked up) 1: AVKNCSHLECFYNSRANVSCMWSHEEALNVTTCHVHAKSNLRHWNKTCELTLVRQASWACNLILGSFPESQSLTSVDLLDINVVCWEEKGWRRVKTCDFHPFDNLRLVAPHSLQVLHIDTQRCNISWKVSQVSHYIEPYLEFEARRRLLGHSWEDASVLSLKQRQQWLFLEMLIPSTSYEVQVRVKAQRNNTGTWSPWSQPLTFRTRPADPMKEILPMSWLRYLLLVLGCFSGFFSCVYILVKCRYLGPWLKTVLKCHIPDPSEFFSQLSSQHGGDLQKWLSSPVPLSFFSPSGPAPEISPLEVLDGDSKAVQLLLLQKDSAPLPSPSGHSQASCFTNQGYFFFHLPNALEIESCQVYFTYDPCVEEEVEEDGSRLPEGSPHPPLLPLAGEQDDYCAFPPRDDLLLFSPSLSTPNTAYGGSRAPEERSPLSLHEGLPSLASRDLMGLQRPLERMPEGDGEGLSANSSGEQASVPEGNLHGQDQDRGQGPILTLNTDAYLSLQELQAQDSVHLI
T1 sequence (looked up) 2: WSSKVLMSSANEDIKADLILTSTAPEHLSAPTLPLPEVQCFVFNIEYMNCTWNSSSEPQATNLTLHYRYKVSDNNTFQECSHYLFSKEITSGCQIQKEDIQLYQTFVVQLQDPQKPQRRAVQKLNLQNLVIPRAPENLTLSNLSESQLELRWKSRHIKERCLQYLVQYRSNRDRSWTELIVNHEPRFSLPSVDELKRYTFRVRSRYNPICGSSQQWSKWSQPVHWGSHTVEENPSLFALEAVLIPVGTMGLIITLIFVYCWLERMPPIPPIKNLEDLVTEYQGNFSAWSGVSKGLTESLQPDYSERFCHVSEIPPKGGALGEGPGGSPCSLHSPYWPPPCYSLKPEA

his-tagged mammalian expressed control human IL-2, compound 13, sequence (P60568 other isoform, or with tags, fused parts or gaps limits assumed): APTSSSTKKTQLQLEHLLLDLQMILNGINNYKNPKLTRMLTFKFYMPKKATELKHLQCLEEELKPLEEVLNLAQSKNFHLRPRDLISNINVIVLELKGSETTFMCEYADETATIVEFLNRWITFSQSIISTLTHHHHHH
human IL-2Rβ/γ (human), sequence (P14784 27-551, chain 1 of 2): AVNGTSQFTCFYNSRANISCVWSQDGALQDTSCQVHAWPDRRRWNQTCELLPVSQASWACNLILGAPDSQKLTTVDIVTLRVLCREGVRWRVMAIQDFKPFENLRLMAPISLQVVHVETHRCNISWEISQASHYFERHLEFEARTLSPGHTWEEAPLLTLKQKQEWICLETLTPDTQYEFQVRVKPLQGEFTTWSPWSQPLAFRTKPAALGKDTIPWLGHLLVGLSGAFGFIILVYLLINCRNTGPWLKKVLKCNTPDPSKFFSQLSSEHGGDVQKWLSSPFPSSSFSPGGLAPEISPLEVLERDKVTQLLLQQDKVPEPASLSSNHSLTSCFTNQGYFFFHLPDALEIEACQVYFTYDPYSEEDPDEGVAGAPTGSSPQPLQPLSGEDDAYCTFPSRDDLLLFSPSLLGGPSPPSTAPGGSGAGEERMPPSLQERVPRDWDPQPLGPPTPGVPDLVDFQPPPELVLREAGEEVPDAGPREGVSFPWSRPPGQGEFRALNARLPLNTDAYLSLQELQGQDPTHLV
human IL-2Rβ/γ (human), sequence (P31785 23-369, chain 2 of 2, further chain): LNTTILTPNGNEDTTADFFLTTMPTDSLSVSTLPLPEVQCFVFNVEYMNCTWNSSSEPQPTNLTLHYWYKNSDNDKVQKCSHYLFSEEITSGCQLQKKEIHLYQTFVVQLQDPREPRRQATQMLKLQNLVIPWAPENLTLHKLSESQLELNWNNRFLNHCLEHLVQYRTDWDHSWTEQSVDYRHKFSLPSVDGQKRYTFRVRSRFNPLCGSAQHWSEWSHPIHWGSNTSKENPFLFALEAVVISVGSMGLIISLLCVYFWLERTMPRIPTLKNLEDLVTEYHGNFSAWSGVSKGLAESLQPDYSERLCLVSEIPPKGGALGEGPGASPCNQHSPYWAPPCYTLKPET
human IL-2Rα/β/γ (human), sequence (P01589 22-272, chain 1 of 3): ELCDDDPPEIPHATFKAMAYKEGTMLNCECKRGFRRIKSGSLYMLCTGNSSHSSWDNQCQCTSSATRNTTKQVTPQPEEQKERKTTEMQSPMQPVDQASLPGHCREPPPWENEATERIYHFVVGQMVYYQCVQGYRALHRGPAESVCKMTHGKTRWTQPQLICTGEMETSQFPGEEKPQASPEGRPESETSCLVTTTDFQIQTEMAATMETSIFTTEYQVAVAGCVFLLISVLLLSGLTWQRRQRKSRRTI
human IL-2Rα/β/γ (human), sequence (P14784 27-551, chain 2 of 3, further chain): as the sequence (P14784 27-551, chain 1 of 2) above
human IL-2Rα/β/γ (human), sequence (P31785 23-369, chain 3 of 3, further chain): as the sequence (P31785 23-369, chain 2 of 2, further chain) above

Question: What does the source list for “his-tagged mammalian expressed control human IL-2, compound 13 (from UniProt P60568 21-153) (ligand)”?
Answer: pSTAT5 EC50, Treg, cynomolgus monkey whole blood [1]: 0.09 ng/mL; pSTAT5 EC50, Treg, human whole blood (human IL-2Rα/β/γ (human)): 0.09 ng/mL; pSTAT5 EC50, CD8, human blood (additional experiments) (human IL-2Rβ/γ (human)): 4.94 ng/mL; pSTAT5 EC50, CD8, human whole blood (human IL-2Rβ/γ (human)): 25.7 ng/mL; pSTAT5 EC50, NK, human blood (additional experiments) (human IL-2Rβ/γ (human)): 17.6 ng/mL; pSTAT5 EC50, NK, human whole blood (human IL-2Rβ/γ (human)): 6.01 ng/mL; pSTAT5 EC50, CD8, mouse blood (mouse IL-2Rβ/γ (mouse)): 24000 ng/mL; pSTAT5 EC50, NK, mouse blood (mouse IL-2Rβ/γ (mouse)): 9690 ng/mL
